A short description of the data set: soluble on expression in E. coli; label from the status in PepcDB or PDB records.
Regarding “SPLHVSLANGNRDLDYDSVQPYFMCDDEEEDVHHQQPPQPPAPSEDIWKKFELLPTPRPSPGHAGLYSPPCEAVAVSFAPRDHDGDSFSIADLPELPGGDAVKQSFVCDPDDETFVKNIILQDCMWNGFSASAKLVSKLDPYQAVRKEGTGVSLAADVEPATPPDCTCNT”, the “soluble on expression in E. coli” value was “soluble”.
As to “MGHHHHHHSHLQHETQELASKRVDIQNKRFYLDVKQNAKGRFLKIAEVGAGGNKSRLTLSMSVAVEFRDYLGDFIEHYAQLGPSQPPDLAQAQDEPRRALKSEFLVRENRKYYMDLKENQRGRFLRIRQTVNRGPGLGSTQGQTIALPAQGLIEFRDALAKLIDDYGVEEEPAELPEGTSLTVDNKRFFFDVGSNKYGVFMRVSEVKPTYRNSITVPYKVWAKFGHTFCKYSEEMKKIQEK”, the “soluble on expression in E. coli” value is on record as “soluble”.
The same measure for “MGSDKIHHHHHHMVFFMLIIDVNHGALTLAEEYLNLGYEVDVWDIYQKIKKSEDFKVKYQKLKEKFGNKLNLFFEQPNFEKYDRVIAPIHCPIDVDFIPFTDAVSKILKEKFGNIHKKIINVTGVKGKTTTTSLINHILKDKYSTYLHNSNFGSIAPPTILKVLNSLDIDKYDFFIFETSLGLIKCKYGAITNVLENYKIAGGRKDALTAKFSSLKNAELSFINKRDINRYDLNINHKCLNVVDVDRAKILDKYPLKFKYFDEIFEFSKNIFGLHFVENSLFAIEICKNLVDMEEIRYRLKTFTIKNRMEIKEINKKILVKNINPGLDVKAISYAIKDFLEVFGGDIYIGGDFGIVCEEIDVKKLSEVLKRFNCRYIFVGEIGKELLNYLNGGYIKSYDENKIKRDSLVILREKIK”: “not soluble”; for “MTHYKDDSYALHTDLYQINMAYTYWKDGIHNRRSVFDLYFRKLPFENGYAVFAGLEKIVEYIENFSFTESDIAYLAELQFEEEFLHYLQNMKFTGTIRSMQEGEVVFNNEPLLRVDAPLGEAQIIETALLNIVNYQTLIATKAARMKHAASNDELLEFGTRRAHEFDAALWGTRAAFIGGFSSTSNVRAGKRFGIPVAGTHAHSFVQAYRDEYVAFKKYAETHKKCVFLVDTYDTLKSGVPNAIRVAKEFGDRIDFYGIRLDSGDMAYLSKKARKLLDEAGFTNTKIIASSDLDEYTIMHLKSQGAKIDVWGVGTKLITSFEQPALGAVYKLVAIEDTDGKLNDTIKISSNPEKITTPGLKRIYRIINRVNDHAEGDYIALDSEEPGKEERLKMFHPVHTYISKFVTNFEARELHKDIFVNGERTYELPSILDIQKYNEQSLSLFWEEYMRTLNPEEYPVDLSQECWDHKMNYIQTVREQVEKNIQK”: “not soluble”; for “MQDELFETEKIPPKNTKNTKNAPKKSFEEHVHSLERAIDRLNDPNLSLKDGMDLYKTAMQELFLAQKLLENAYLEHEKLQTPDQKA”: “not soluble”.
Then “MTSEQYSVKLTPDFDNPKWIGRHKHMFNFLDVNHNGRISLDEMVYKASDIVINNLGATPEQAKRHKDAVEAFFGGAGMKYGVETEWPEYIEGWKRLASEELKRYSKNQITLIRLWGDALFDIIDKDQNGAISLDEWKAYTKSDGIIQSSEDCEETFRVCDIDESGQLDVDEMTRQHLGFWYTMDPACEKLYGGAVP”, with “soluble”; and “MAHHHHHHMSGPPKQCYYELLQVDRKASSEEIRQAYKKQALIHHPDKNYSNEQSTIEKFKDIQNAYAVLSDPDERAWYDAHRESILNGEDADSSQHEVNLYCYFTSRCFDGFDDNEGGFYSVYRKVFDQLIEDESEYSSNAKTWPRFGDSATSWSSVSKFYSHWRNFSSCKTFAWKDEYKVNEIPDRASRRMAERINQKLRTSAKKEYVQIVQGLTRFVHRRDPRVAAELTRQEEERRLKEEEREKRELEWAKNRREANEKLWAEAAEKEAEEERARIERGEAPDSCTLDLLYEKQRQCEEARKVKGGTNCGFAMLEDEHEDNLPEKKRSCPACKKQFKTDAQYKEHVNSSKHKAKLRQLSAKGVDIETLMNEEKDISTCV”, with “soluble”; and “MKKREVIASVKDEKLVKKRRNEMIKGAISLFKQKGFHQTTTREIAKASGFSIGTLYEYIRKKEDVLYLVCDRIYDEVRERTEQDLGAHHGTIEGLRRAIAHYFRVVDELDDEVLVMYQEVKALSKESLPYVLNKELDMAAIFEHILRACVENGALQLSESEIRLFAHNIVVLGQMWAFRRWVLRKMYTLDEYIELQTEFLLKGIMEKQRV”, with “not soluble”.
In the case of “MSLNEQRFFRFLRERIGLDVESVGAPMVERALRQRCVAAGAMDLDDYWLRLQQSADEQQALIEAVIVPETWFFRYPESFTALASLAHKRLAQLAGARPLRLLSLPCSTGEEPYSLAMALFDAGMAPGAFLVDGMDISPSSVAKAGQAVYGRNAFRGSELGFRERYFDALDEGHRLHERVRQQVSLRVGNVLDPALASRDGLYDFVFCRNLLIYFDVPTQQRVFEVLKRLLHPQGVLFIGPAEGSLLARMGMRPLGIAQSFAYVRHEGDSAPLAAAPAQTAKRAFTTLPAPVYPQPSVPLPRSRRVLPVAARPARAREHSHEGASELLAGIARLANAGASEQARSECQRYLSQYPPSAQVYYWLGLLSDTEGDAQQALSHYRKALYLEPQHPEALVHLAALLAAQGDLAGARRLQERAARAGRESEREGHHHHHH”, the “soluble on expression in E. coli” value is “soluble”.
Consider “MGSDKIHHHHHHMKVVFVSYEVFPFAKVGGLADVAGTLPKYLKKHGVDVTIVMPKHRIVEKNAEKFGYEIKKVAESLSVSHVKTDQKFDIYESVLPGSDVKTYFVANDYYFSAEDVYAGPDLGEQAIFFCAATLDLVKHLDLKPDIVHVNDWQTALIPVYLKTVYRDDPYFSRTATVLTIHNLGYQGVFDPKYLSFAGLPDYVYTIDGLEFYGQLNFLKGGIVFSDVINTVSPTYAEEIQTEEYGEKLDGVLRMRSKDLYGILNGIDYELYNPATDRYIYVNYDVNRLELKWENKVKLQEELGLPVNKETAVAGLISRLVPQKGLDLLVDVMDYLTLFDLQIVVLGTGDEQYENAFRKFQERYPDKVSANIKFDVELAQKIYAGADIFLMPSRYEPCGLGQMFSMRYGTIPVVRYTGGLADTVKEYDPQSMEGTGFGFKKYDSAHLLKAVSKALHFYYREKDHWRRIMTNAMNTDLSWDRSAKEYVDLYKKALAKVGR”, for which the “soluble on expression in E. coli” value is recorded as “not soluble”.
With “MAELKDQLSLLGRKTEYKQDYAPEVLEAFDNKHPENDYWVRFNCPEFTSLCPITGQPDFAEIRISYIPDIKMVESKSLKLYLFSFRNHGAFHEDCVNIIMKDLIKLMNPKYIEVTGIFTPRGGISIYPYANYGRPGTKFEQMAEHRLMNRE”, the “soluble on expression in E. coli” value is “not soluble”.
Turning to “MIKPEYVVKLLSENMKKTRNPLGIKNEKTNNWWKKVEISKEGDWLFFTGMLYQLTPYIEATVKFLEKIENSRLQGLLTLSKAFPVPFSLLKAITPREAREEAETILQKVYFLLAKSVDVFYAPHLDFYSGILLYDFGHDEAFAEHAKFVCKRLESAGIEKIVTPDPHTTYALKVLYPKFTGVEFDVKSYIELLSDAKSLFNEEFVIHDPCYYGRYLELSDRVREVLNCAGVKYRGVRYSGRLTNCCGGPVEALSPKISREIARLRVEELGNSRIITFCPICLANLRRAGGNAVDFSMVVG”, the “soluble on expression in E. coli” value was “not soluble”.
The same measure for “MPVLVFGAVNVHDGDTVAVVHQEESANATAFLDFLRLLKERHPNRMIALVLDNARIHHARMVKDFLREEGQCFHFLYLPPYSPQLNPIERLWKWLKDTVITNAFHKDRHEILQAVQRLIHYIPKRPEDVLRRLECAV”: “not soluble”; for “MTDNITDEAIIDKAQELHDKAYDKAVYERDEANGVHANQNNPEVLIFNDGPTDDEIREKLSWVVDRFRETLKPFPRDFDPLIDKIKAIEAAFGQEEDSFGDPDLGMIETSANYMAQWEGALSTNFNEKFLGPMPIIAANHGKLASYLRDHAEKMKSIYESGRQDALNIAEKGVEAIDAINDSNGKDLMIALAVLIAAGTLAGPALGVASAPLAVQLANAAVIAGSVLGGPFVEKGEEVPLGGDTVEEVMNNVRDALDASAKRIFEEEGYLLDALKKSEEEVFPQTSGNTDDHTALLPQQPKVFTATGEELTAGLVQFGSEDGTDGGGGDRGSYVGDDPPDNFEGSVFVPPEKKTATG”: “not soluble”.
As to “QMQMGLSSFDRVMDVVDMTAEHPDPEHPLDLPAGPLSLELENVHFDGILNGTTLTVPAGDTVAIVGPPGSGKTMAVQLLCGFYRPESGQIRLGGVDTTQLRRHDLRNAVSCVFDDPFLYSASIRDNIAMGRNVTDVEIERAARIAQAHDFITALPHGYDEIVGERGLTLSGGQRQRIAIARAVLERPRVLILDDATSAIDVTTEHAIYEQLSTELSDVTILAVAHRNSTLSLADSVALIDNGRIVDHGSLSYMRANPQFVYLMDVQEHLRKRNSHEPFVPFDDGTEPEWTQLWPEIASSQHDSRLTINSSAMKAAASVAGANPAAGGRGRGRGGMAASIPATPELLARVDALPPTRDTPGPRPLLDHDHGKVTAHQLFASVR”, the “soluble on expression in E. coli” value is listed as “not soluble”.
With “MLKGGEDVVQGTHVRELTPEWVARAVGGRLHPGGGPVRDLVWHSGAATPGSLFAVLPGRTTHGRHFIPEALARGASLVLADQAGPATLEVEDPWQALLRLGEALRRLFPGPVLAVGGSSGKTTTKEALAQGLGLPAPPGNLNTAPPLVRFFWHLDPQSPGAVVELGVDRQGEMAELFALAKPHLAVLTALGEEHLEAFGTLEKAVQEEAHLLRAPTALVGEQAAPLVLGLREDLLVYGFAEGTFRGRDLELGLRESRFRYGGLHVRVPYPGLGPAYGALAALAAAEVLGLSLEEVAERLARLTLPPGRMETREVGGVVFVNDAYNANPLSVKAGLRWLAAQPGRKWAVLGEMRELGRESLRLHLEVAEEAARLGLSPLYLGPHARHQAAFSGEAVESLEEALAWLKARVAPGDLVYLKASRAVGLERIVELWDAPFSS”, the “soluble on expression in E. coli” value is recorded as “soluble”.
Then “MSPSKLSNDETPPDLDFRFTGIKQRLIKSENVKQVTASWKRLLVEINKEFTEIAKIGPSYVPKCDFIDIKDNKLPQQVSELFKQRGCLMIENVIDVDRIDIWFNELVEFCKTHPETAGYTFPNPTSWYNVFWSKPQTEARFHPNIKAIFKAMSKEFYVEDKENCLIDLDTQLVYGDRIRIREPGKAAALPLHLDSSSIERWEDIMYSEVYKSIFEGDWENWDAFKLDERTYSKENLYKDEDDTGGKSTICSSFRTLQGWLALSNNKSGEGTLRVLPSLKLSMAYIMLRPFFWKDPESGNIDDYEIDMITPKFPGTVPGTGQLFLDKFYPHLHQGIISIPDVKKGSFVFWHCDLPHEVDREHNGNGHSSVLYYGQTPLSITNIQTLLDTRDAFLKNISPADYRSQLNEEEKQKEFQGANIDDLKNDIDSKRSMGLEEFEIPENMSGGQAKIRSIANQALKTGGFNVDKYIHHAAK”, with “soluble”.
Turning to “MGSDKIHHHHHHMFTQVYEEIRQLTISKVLDFYDHEVRRLDEAARQTKYQKMSASPFLFFRGSSHLFYYDVTRIPLGFDTPPETPTWIQGDLHFENFGVHGNAKGEIIYDVNDFDEGYLGSYLYDLIRMAVSVQLFAEEAGYDAKPAIAAYVQHYLDDLRQYAKGKNPSKVCFTTDNTKGPIRKLIKKAEKKKAELLGERTTVVDGQRRFADLPDMKRLDSSAYTAIEAVWPEYIASIDAEDRQEDGFYAIKDIVYKLDSGTASIGLERYYILVEGTGGEHEDLILEMKQAQSSVPSLFVPAYLQEVETVHQGRRIVTSQKAMQAHEDPYLGYVTMHGKEYYVRERSPYKKKLKAKHIKSQDDLENVLSIQGQITAKIHARADMDAGVDVDILHHHADVVIIESIGVSDAEFIRQIQRWSSAYAARTTLDFQVFLSWLANR”, the “soluble on expression in E. coli” value is “not soluble”.
As for “PRNQMPRIHASSGTTGKPTVVGYTKTDLDNWANLMARSMVGAGASPDDIVHNAYGYGLFTGGLGAHYGAERLGCTVVPASGGGTERQVQLIVDFGANVLCCTPSYALNIAEVAEQMGVSLKDAPLRVGLFGAEPWSDAMRRDLEARLGIKAVDVYGLSEIMGPGVACECH”, the “soluble on expression in E. coli” value is “not soluble”.

Values taken from the DeepSol protein solubility set.
